Test in all cases: SEC; protein at 500 ug/mL incubated 3 hours at 30°C, then Superdex 75 in 50 mM Tris-HCl pH 8.0, 150 mM NaCl, 5% (v/v) glycerol, calibrated with molecular mass standards; dimer to monomers
(Size exclusion chromatography separates by hydrodynamic size, large species first.)

Assay [1] deals with human triosephosphate isomerase N71D mutant (human).
In assay [2] the target is human triosephosphate isomerase N15D mutant (human).
The target of assay [3] is human triosephosphate isomerase N15D/N71D double mutant (human).

As a reminder, the stoichiometry N is the number of molecules, sites or subunits per partner or assembly. Regarding “human triosephosphate isomerase N71D mutant (enzyme)”, the stoichiometry N in assay [1] amounted to 2.

In the case of “human triosephosphate isomerase N15D mutant (enzyme)”, the stoichiometry N in assay [2] stood at 2.

In the case of “human triosephosphate isomerase N15D/N71D double mutant (enzyme)”, the stoichiometry N in assay [3] amounted to 2.
